Substrate in this data set: CCCCCCCCCCCC(=O)Oc1ccc([N+](=O)[O-])cc1
Briefly: p-nitrophenol release, Michaelis-Menten. In kind it is biochemical, Rhizomucor miehei.

As usually defined, the Km is the substrate concentration at which the rate is half of its maximum.

Substitutions are numbered along the chain they refer to. In names and notes the source's numbering stands.

B1: Rhizomucor miehei lipase (RML) (Rhizomucor miehei) (protein)
chain: VPIKRQSNSTVDSLPPLIPSRTSAPSSSPSTTDPEAPAMSRNGPLPSDVETKYGMALNATSYPDSVVQAMSIDGGIRAATSQEINELTYYTTLSANSYCRTVIPGATWDCIHCDATEDLKIIKTWSTLIYDTNAMVARGDSEKTIYIVFRGSSSIRNWIADLTFVPVSYPPVSGTKVHKGFLDSYGEVQNELVATVLDQFKQYPSYKVAVTGHSLGGATALLCALDLYQREEGLSSSNLFLYTQGQPRVGDPAFANYVVSTGIPYRRTVNERDIVPHLPPAAFGFLHAGEEYWITDNSPETVQVCTSDLETSDCSNSIVPFTSVLDHLSYFGINTGLCT
As for B1, the Km (at the enzyme's optimal conditions (optimum 45 °C)) was found to be 92 µM.

B2: Rhizomucor miehei lipase (RML) (Rhizomucor miehei; E324I/N214M/N358M) (protein)
chain: B1 chain with N190M, E300I, N334M
Regarding B2, the Km (at the enzyme's optimal conditions (optimum 55 °C)) was found to be 31.75 µM.

Values taken from publication PMC11727178, “Computer-Aided Design to Improve the Thermal Stability of Rhizomucor miehei Lipase” (Foods, 2024).
